# Experimental data reported in paper doi:10.1101/633420.
# Target: PRR (UniProt P10636)
# Assay: fluorescence correlation spectroscopy
# Chain of UniProt P10636 (P10636 466-561): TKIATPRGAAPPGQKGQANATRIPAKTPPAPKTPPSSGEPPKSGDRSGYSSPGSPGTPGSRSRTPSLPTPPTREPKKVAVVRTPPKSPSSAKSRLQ
# Chain of tubulin (Q6B856 whole entry, looked up): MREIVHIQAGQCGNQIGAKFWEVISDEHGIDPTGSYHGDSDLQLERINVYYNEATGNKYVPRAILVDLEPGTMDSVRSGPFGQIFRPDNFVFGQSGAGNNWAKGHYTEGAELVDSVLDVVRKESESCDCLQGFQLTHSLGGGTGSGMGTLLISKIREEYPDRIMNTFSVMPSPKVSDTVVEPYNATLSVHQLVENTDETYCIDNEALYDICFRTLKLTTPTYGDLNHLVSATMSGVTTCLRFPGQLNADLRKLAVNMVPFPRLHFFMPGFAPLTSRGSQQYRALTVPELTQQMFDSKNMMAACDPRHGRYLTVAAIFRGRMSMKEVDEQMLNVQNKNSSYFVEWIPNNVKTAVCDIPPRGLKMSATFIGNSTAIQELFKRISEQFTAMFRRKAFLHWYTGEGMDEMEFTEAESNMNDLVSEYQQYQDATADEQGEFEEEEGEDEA
substance,measurement,value
tubulin (from UniProt Q6B856 1-445) (complex),Kd,900 nM
same,stoichiometry N (tubulin dimers per PRR),2
